Molecular target: Acetylcholine receptor on AchR-overexpressed TE671 cells
Assay: cell-based or functional assay

Question: How did the IC50 value for AchR (inhibition of AchR action, TE671 cells) turn out when Synake (peptide) was run?
Answer: 75 µM

Reference: EP3904368A2
